Data on seven molecules can be found in patent US20190153103A1 (AbbVie / Abbott, published 2019).

Changes are numbered by the printed parent chain. Where two headings read alike, the source gives them in different places.

For assay [1], the target named is T1, hBMPR1B-His (human BMPR1B extracellular domain, residues K14 to R126, with C-terminal 9x-Histidine tag) (human, UniProt O00238 14-126).
T1 construct: Residues K14-R126 are counted on the hBMPR1B ORF (NM_001203); The IgK signal peptide of the vector is left out; also called hBMPR1B-CHis; human BMPR1B-his
T1 sequence: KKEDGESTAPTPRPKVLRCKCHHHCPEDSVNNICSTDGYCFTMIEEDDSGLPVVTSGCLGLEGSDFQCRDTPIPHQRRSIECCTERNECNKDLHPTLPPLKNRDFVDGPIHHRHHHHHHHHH
Description: ELISA.

For assay [2], the target named is T2, BMPR1A-Fc (recombinant protein used in the screen 1 ELISA) (human, UniProt P36894 24-152, limits assumed).
T2 construct: also called human BMPR1A; not shown: Fc
Nature of the assay: ELISA. On the technique in general: ELISA stands for enzyme-linked immunosorbent assay.

Assay [3] has as its target T3, irrelevant Fc-tagged protein.
T3 construct: ELISA control; also called irrelevant Fc construct
Nature of the assay: ELISA.

Assay [4] has as its target T4, hBMPR1B-Fc (human BMPR1B extracellular domain, residues K14 to R126, fused to human IgG2 Fc) (human, UniProt O00238 14-126).
T4 construct: also called BMPR1B fused to human Fc fragment; not shown: human IgG2 Fc protein
T4 sequence: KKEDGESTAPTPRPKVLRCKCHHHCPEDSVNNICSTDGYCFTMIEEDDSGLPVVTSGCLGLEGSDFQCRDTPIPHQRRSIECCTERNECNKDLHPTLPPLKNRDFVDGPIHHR
Nature of the assay: ELISA.

Assay [5] concerns the target T5, Cyno-his (cynomolgus).
T5 construct: extracellular domain; soluble analyte of the Biacore runs; also called cSCRx91-his; cBMPR1B-CHis
Description: Biacore.

Assay [6] addresses T6, rat-his.
T6 construct: soluble analyte of the Biacore runs; also called rSCRx91-his; rBMPR1B-CHis
T6 chain: T1 sequence with P12A, L51T, N102D, R113K
Description: Biacore.

Assay [7] deals with T1, hBMPR1B-His (human BMPR1B extracellular …). Nature of the assay: Biacore. For orientation: In SPR one partner is held on a chip, and binding of the other changes the refractive index at the surface.
Assay [8] deals with T7, human BMPR1B overexpressed on the surface of HEK293T cells (N-terminal Asp-Lys epitope tag, … (human, UniProt O00238 14-502)).
T7 construct: also called HEK293T cells overexpressing hBMPR1B; BMPR1B-expressing HEK293T cells
Nature of the assay: flow cytometry. On the technique in general: A flow cytometer gives signals particle by particle.

Assay [9] has as its target T8, rat BMPR1B overexpressed on the surface of HEK293T cells (N-terminal Asp-Lys epitope tag, … (rat, UniProt A0A8I6A0G0 62-550)).
T8 construct: whole, on cells
Description: flow cytometry.

The target of assay [10] is T7, human BMPR1B overexpressed on the …. Nature of the assay: cell-based or functional assay.
The target in assay [11] is T8, rat BMPR1B overexpressed on the surface …. Description: cell-based or functional assay.
In assay [12] the target is T9, human BMPR1B coated on MSD plates (construct not stated) (human, UniProt O00238 14-126, limits assumed).
T9 construct: also called BMPR1B receptor
T9 sequence: T4 sequence
Nature of the assay: MSD ELISA, BMP2 blocked. Further details: concentration or dose not given beside the values.

Assay [13] has as its target T9, human BMPR1B coated on MSD plates …. Description: MSD ELISA, BMP4 blocked. Further details: concentration or dose not given beside the values.
Assay [14] addresses T6, rat-his. Nature of the assay: Biacore, 200 nM.
Assay [15] has as its target T5, Cyno-his. Description: Biacore. The source holds these as a separate data set.
Assay [16] concerns the target T6, rat-his. Description: Biacore.
Assay [17] addresses T1, hBMPR1B-His (human BMPR1B extracellular …). Nature of the assay: Biacore. The source holds these as a separate data set.
Assay [18] has as its target T7, human BMPR1B overexpressed on the …. Nature of the assay: flow cytometry. The source holds these as a separate data set.
For assay [19], the target named is T8, rat BMPR1B overexpressed on the surface …. Description: flow cytometry. The source holds these as a separate data set.
Assay [20] addresses T10, cynomolgus BMPR1B overexpressed on the surface of HEK293T cells (N-terminal Asp-Lys epitope tag, … (cynomolgus)).
T10 construct: whole, on cells
Description: flow cytometry.

For assay [21], the target named is T7, human BMPR1B overexpressed on the …. Description: cell-based or functional assay. The source holds these as a separate data set.
The target in assay [22] is T8, rat BMPR1B overexpressed on the surface …. Description: cell-based or functional assay. This is another data set of the same source.
In assay [23] the target is T10, cynomolgus BMPR1B overexpressed on the …. Description: cell-based or functional assay.

T2 sequence (P36894 24-152 limits assumed): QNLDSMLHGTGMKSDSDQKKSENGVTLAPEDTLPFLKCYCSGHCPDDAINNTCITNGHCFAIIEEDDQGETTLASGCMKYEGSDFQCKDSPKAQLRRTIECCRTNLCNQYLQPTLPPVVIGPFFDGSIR

B1: SC91.1 (murine anti-BMPR1B antibody) (antibody, V domains shown)
VH: QVQLQQPGAELVKPGASVKLSCKASGYTFTSYWMQWVKQRPGQGLEWIGEIDPSDNYTLYNQKFKGKATLTVDTSSSTAYMQLSSLTSEDSAVYYCARFGYYVDYWGLGTTLTVSS
VL: DVVMTQTPLSLPVSLGDQASIFCRSSQSLVHSTGNTYLHWYLQKPGQSPKLLIYKVSNRFSGVPDRFSGSGSGTDFTLKISRVEAEDLGVYFCSQSTHVPFTFGSGTKLEIK
notes: Murine hybridoma antibody with a kappa light chain
What is called Kd is the concentration at which binding is half-saturated. As usually defined, the % inhibition is the relative decrease from the control value, in per cent. With B1, the ELISA was 1.17 in [1], 0.031 in assay [2], 0.039 in [3] and 0.483 in assay [4]. Also, the Kd was determined as 5.1 nM with Cyno-his [5], 3.34 nM with rat-his [6] and 2.34 nM in [7]. For the same molecule, the “Flow cytometry MFI” value is 5520 in assay [8] and 5080 in [9]. The results for the “% live, Fab-saporin, 100pM” value in assay [10] and in assay [11] were 9.53% and 15.6%, respectively. Further, the results for the “% inhibition” value in [12] and in assay [13] were 38% and 75%, respectively.

B2: SC91.27 (murine anti-BMPR1B antibody) (antibody, V domains shown)
VH: B1 VH with L11V, S31N, N56R, L59M, T71I, Y95F, L108Q
VL: B1 VL with F22S, K50N
notes: Murine hybridoma antibody with the same VL as SC91.20
Regarding B2, the ELISA in assay [1] came out at 0.855; in [2], 0.043; in assay [3], 0.042; in assay [4], 0.417. The Kd was determined as 2.56 nM with Cyno-his [5], 2.14 nM with rat-his [6] and 1.98 nM in [7]. Moreover, the “Flow cytometry MFI” value came to 6880 in assay [8] and 5970 in assay [9]. Also, the “% live, Fab-saporin, 100pM” value in [10] was found to be 11.9%; in assay [11] it was 17.9%.

B3: SC91.20 (antibody, V domains shown)
VH: B1 VH with L11V, K13R, V18L, V37I, L59M, Y95F, Y101F, L108Q
VL: B1 VL with F22S, K50N
As to B3, the ELISA in assay [1] came out at 1.01; in assay [2], 0.116; in [3] it was 0.041; in assay [4], 0.462. Further, the Kd in the assay with Cyno-his [5] came to 2.3 nM; with rat-his [6], 1.91 nM; in assay [7] it was 0.934 nM. Besides, the entries for the “Flow cytometry MFI” value in assay [8] and in [9] were 7480 and 5940, respectively. In addition, the “% live, Fab-saporin, 100pM” value was found to be 10.4% in assay [10] and 18.2% in assay [11].

B4: SC91.19 (antibody, V domains shown)
VH: QIQLVQSGPELKKPGETVKISCKASGYTFTTYGMNWVKQAPGKGLKWMGWINTYSGVPSSANDFKGRFAFSLETSASTAYLQINNLKNEDTATYFCARSELRNWYFDVWGTGTTVTVSS
VL: SFVMTQTPKFLLVSAGDRVTITCKASQSVGNDVAWYQQKPGQSPKLLIYYASNRYTGVPDRFTGSGYGTDFTFTISTVQAEDLAVYFCQQDYSSPFTFGSGTKLEMK
For B4, the ELISA in [1] turned out to be 1.46; in [2], 0.121; in assay [3], 0.05; in assay [4] it was 0.737. Further, in assay [7], the Kd stood at 8.46 nM. The “Flow cytometry MFI” value in [8] stood at 7250; in assay [9], 470. In the assay with rat-his [14], the binding result was “binds”. Moreover, the figures for the “% live, Fab-saporin, 100pM” value in assay [10] and in [11] were 14.3% and 102%, respectively. In addition, the figures for the “% inhibition” value in assay [12] and in assay [13] were 32% and 61%, respectively.

B5: SC91.9 (murine anti-BMPR1B antibody) (antibody, V domains shown)
VH: QVQLQQPGAELVKPGASVKLSCKASGYTFISYWMHWVKQRPGQGLEWIGMIHPNSGSTNYNESFKSKATLTVDKSSSTAYMQLSSLTSEDSAVYYCARDLLIATVVVTPYFAYWGQGTILTVSS
VL: DIQMTQTTSSLSASLGDRVTISCRASQDISNFLNWYQQKPDGTIKFLIYYTSRLHSGVPSRFSGSGSGTDYSLTIRNLEQEDIATYFCQQGNTLPYTFGGGTKLEIK
notes: Murine hybridoma antibody
Turning to B5, the ELISA was found to be 1.41 in [1], 0.056 in assay [2], 0.042 in [3] and 0.551 in [4]. The Kd came to 0.153 nM in the assay with Cyno-his [5], 0.181 nM with rat-his [6] and 0.322 nM in assay [7]. In addition, the “Flow cytometry MFI” value in [8] came out at 5480; in assay [9], 5270. For the same molecule, the “% live, Fab-saporin, 100pM” value came out at 9.44% in assay [10] and 14.7% in assay [11]. The results for the “% inhibition” value in assay [12] and in assay [13] were 50% and 93%, respectively.

B6: SC91.146 (antibody, V domains shown)
VH: QVQLQQPGAELVKPGASVKLSCKASGYTFTSYWMHWVKQRPGQGLEWIGDIDPSDRYTNYNQKFKGKATLTVDTTSSTAYMQLSSLTSEDSAVYYCAISGWDYFDYWGQGTTLTVSS
VL: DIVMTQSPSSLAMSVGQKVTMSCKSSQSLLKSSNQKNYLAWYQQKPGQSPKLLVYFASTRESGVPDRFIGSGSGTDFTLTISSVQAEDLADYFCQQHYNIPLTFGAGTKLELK
In the case of B6, the figures for the Kd (with Cyno-his [15]; with rat-his [16]; in assay [17]) were under 0.1 nM, under 2 nM and 1.21 nM, respectively. Further, the gMFI in assay [18] is 15800; in [19] it was 6220; in assay [20], 10900. Further, the “% live, Fab-saporin, 250pM” value came out at 20.5% in assay [21], 38.8% in assay [22] and 25.4% in assay [23]. Besides, the “% inhibition” value in [12] was 29%; in assay [13] it was 79%.

B7: SC91.15 (murine anti-BMPR1B antibody) (antibody, V domains shown)
VH: B6 VH with K13M, F29L, S31N, R56T, Q62H, T74K, T75S, I98R, Y106S
VL: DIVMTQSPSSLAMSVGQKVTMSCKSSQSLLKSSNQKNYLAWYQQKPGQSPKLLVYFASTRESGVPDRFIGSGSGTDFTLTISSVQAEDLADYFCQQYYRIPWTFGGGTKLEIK
notes: Murine hybridoma antibody
In the case of B7, the ELISA in [1] came to 1.19; in [2] it was 0.055; in [3], 0.05; in assay [4], 0.829. Besides, the Kd in the assay with Cyno-his [5] was determined as 0.947 nM; with rat-his [6], 1.5 nM; in assay [7], 0.922 nM. Further, the “Flow cytometry MFI” value is 5610 in [8] and 4590 in [9]. Moreover, the “% live, Fab-saporin, 100pM” value was determined as 11.9% in assay [10] and 18.5% in assay [11]. Also, the “% inhibition” value in assay [12] worked out at 11%; in [13], 92%.
